Read-outs that look alike come from different tables or passages of the source.
B5: Human VEGF121/VEGF-A protein (human VEGF 121 isoform) with 6-His tag (ligand)
chain: APMAEGGGQNHHEVVKFMDVYQRSYCHPIETLVDIFQEYPDEIEYIFKPSCVPLMRCGGCCNDEGLECVPTEESNITMQIMRIKPHQGQHIGEMSFLQHNKCECRPKKDRARQEKCDKPRR
notes: range 27-147; Bought from Sino Biological; captured on the ELISA plate through an anti-His-tag antibody; not shown: 6-His tag

How the values were obtained:
[1] = target: B5; experiment: ELISA, antigen captured by anti-His antibody on plate, HRP anti-IgG Fc detection
[2] = target: T1, Human IL-17A protein (human, UniProt Q16552 24-155); experiment: as above
T1 construct: Purchased

[3] = target: B5; experiment: as above; remark: listed apart in the source
[4] = target: T2, tPD-L1/LC-GS6-VEGFR-nIgG1 (Homo sapiens (Human), UniProt P0DOX5 2-449 = IgG part); experiment: ELISA
T2 construct: Atezolizumab (de-glycosylated IgG1) with Flt1d2-Flk1d3 fused to the C-terminus of the light chains through the GS6 linker; Expressed in CHO cells

[5] = target: T3, EGFR/LC-GS6-VEGFR-IgG1; experiment: ELISA
T3 construct: Cetuximab IgG1 with Flt1d2-Flk1d3 fused to the C-terminus of the light chains through the GS6 linker; Expressed in CHO cells

[6] = target: TNFα/LC-GS6-VEGFR-IgG1 (Homo sapiens (Human), UniProt P0DOX5 2-449 = IgG part); experiment: ELISA
[7] = target: T4, Human PD-1 protein (human, UniProt Q15116 25-167, limits assumed); experiment: ELISA, antigen captured by anti-His antibody on plate, HRP anti-IgG Fc detection
T4 construct: Purchased
T4 sequence (Q15116 25-167 limits assumed): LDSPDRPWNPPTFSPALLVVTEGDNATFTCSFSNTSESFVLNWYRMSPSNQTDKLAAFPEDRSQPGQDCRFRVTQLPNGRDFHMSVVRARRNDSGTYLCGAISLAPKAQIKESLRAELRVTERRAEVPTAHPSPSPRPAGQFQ

T1 sequence (Q16552 24-155 limits assumed): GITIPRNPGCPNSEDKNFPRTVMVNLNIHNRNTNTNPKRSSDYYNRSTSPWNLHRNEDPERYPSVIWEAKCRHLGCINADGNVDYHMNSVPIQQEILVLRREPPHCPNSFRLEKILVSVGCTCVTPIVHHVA

B1: aPD-L1/LC-GS6-VEGFR-mIgG1 (other)
heavy: EVQLVESGGGLVQPGGSLRLSCAASGFTFSRYWMSWVRQAPGKGLEWVANIKQDGSEKYYVDSVKGRFTISRDNAKNSLYLQMNSLRAEDTAVYYCAREGGWFGELAFDYWGQGTLVTVSSASTKGPSVFPLAPSSKSTSGGTAALGCLVKDYFPEPVTVSWNSGALTSGVHTFPAVLQSSGLYSLSSVVTVPSSSLGTQTYICNVNHKPSNTKVDKRVEPKSCDKTHTCPPCPAPEFEGGPSVFLFPPKPKDTLMISRTPEVTCVVVDVSHEDPEVKFNWYVDGVEVHNAKTKPREEQYNSTYRVVSVLTVLHQDWLNGKEYKCKVSNKALPASIEKTISKAKGQPREPQVYTLPPSRDELTKNQVSLTCLVKGFYPSDIAVEWESNGQPENNYKTTPPVLDSDGSFFLYSKLTVDKSRWQQGNVFSCSVMHEALHNHYTQKSLSLSPGK
light: EIVLTQSPGTLSLSPGERATLSCRASQRVSSSYLAWYQQKPGQAPRLLIYDASSRATGIPDRFSGSGSGTDFTLTISRLEPEDFAVYYCQQYGSLPWTFGQGTKVEIKRTVAAPSVFIFPPSDEQLKSGTASVVCLLNNFYPREAKVQWKVDNALQSGNSQESVTEQDSKDSTYSLSSTLTLSKADYEKHKVYACEVTHQGLSSPVTKSFNRGECTGGGGSGGGGSGGGGSGGGGSGGGGSGGGGSTGSDTGRPFVEMYSEIPEIIHMTEGRELVIPCRVTSPNITVTLKKFPLDTLIPDGKRIIWDSRKGFIISNATYKEIGLLTCEATVNGHLYKTNYLTHRQTNTIIDVVLSPSHGIELSVGEKLVLNCTARTELNVGIDFNWEYPSSKHQHKKLVLSPVNRDLKTQSGSEMKKFLSTLTIDGVTRSDQGLYTCAASSGLMTKKNSTFVRVHEK
notes: Durvalumab (Fc-mutated IgG1) with Flt1d2-Flk1d3 fused to the C-terminus of the light chains through the GS6 linker; Expressed in CHO cells
With B1 the EC50 [1] was 34.5 nM.

B2: Pembrolizumab (e.g., Keytruda®) (antibody, human IgG4 S228P, kappa, V domains shown)
VH: QVQLVQSGVEVKKPGASVKVSCKASGYTFTNYYMYWVRQAPGQGLEWMGGINPSNGGTNFNEKFKNRVTLTTDSSTTTAYMELKSLQFDDTAVYYCARRDYRFDMGFDYWGQGTTVTVSS
VL: EIVLTQSPATLSLSPGERATLSCRASKGVSTSGYSYLHWYQQKPGQAPRLLIYLASYLESGVPARFSGSGSGTDFTLTISSLEPEDFAVYYCQHSRDLPLTFGGGTKVEIKR
notes: Parental full-length IgG4 antibody, used as the positive anti-PD-1 control; also called anti-PD-1 antibody
B2: no binding [2]; no binding [3].

B3: Nivolumab (e.g., Opdivo®) (antibody, human IgG4 S228P, kappa, V domains shown)
VH: QVQLVESGGGVVQPGRSLRLDCKASGITFSNSGMHWVRQAPGKGLEWVAVIWYDGSKRYYADSVKGRFTISRDNSKNTLFLQMNSLRAEDTAVYYCATNDDYWGQGTLVTVSS
VL: EIVLTQSPATLSLSPGERATLSCRASQSVSSYLAWYQQKPGQAPRLLIYDASNRATGIPARFSGSGSGTDFTLTISSLEPEDFAVYYCQQSSNWPRTFGQGTKVEIKR
notes: Parental full-length IgG4 antibody; also called anti-PD-1 antibody
B3: no binding [2]; no binding [3].

B4: Durvalumab (e.g., IMFINZI™) (antibody, human IgG1, kappa, V domains shown)
VH: EVQLVESGGGLVQPGGSLRLSCAASGFTFSRYWMSWVRQAPGKGLEWVANIKQDGSEKYYVDSVKGRFTISRDNAKNSLYLQMNSLRAEDTAVYYCAREGGWFGELAFDYWGQGTLVTVSS
VL: EIVLTQSPGTLSLSPGERATLSCRASQRVSSSYLAWYQQKPGQAPRLLIYDASSRATGIPDRFSGSGSGTDFTLTISRLEPEDFAVYYCQQYGSLPWTFGQGTKVEIKR
notes: Parental full-length IgG1 kappa; also called MEDI4736; anti-PD-L1 antibody
B4: no binding [1].

B5: binds [4]; binds [5]; binds [6].

B6: Ixekizumab (e.g., Taltz®) (antibody, human IgG4 S228P, kappa, V domains shown)
VH: QVQLVQSGAEVKKPGSSVKVSCKASGYSFTDYHIHWVRQAPGQGLEWMGVINPMYGTTDYNQRFKGRVTITADESTSTAYMELSSLRSEDTAVYYCARYDYFTGTGVYWGQGTLVTVSS
VL: DIVMTQTPLSLSVTPGQPASISCRSSRSLVHSRGNTYLHWYLQKPGQSPQLLIYKVSNRFIGVPDRFSGSGSGTDFTLKISRVEAEDVGVYYCSQSTHLPFTFGQGTKLEIKR
notes: Parental full-length IgG4 antibody; also called anti-IL-17A antibody
For B6, the EC50 [2] was 1.1 nM, the binding result [7] was “no binding” and the binding result [3] was “no binding”.

From patent US20200325208A1 (IMMUNOWAKE, published 2020)
